{
  "source": "paper PMC4740771",
  "about": "“Nucleotide-dependent assembly of the peroxisomal receptor export complex” (Scientific Reports, 2016)",
  "conditions_in_all_cases": "both partners purified",
  "key": {"[1]": {"target": "T1, HisPex1p(E798Q) released from its GST fusion (S. cerevisiae, UniProt P24004 1-1043, E798Q)", "T1 construct": "Pex1p of yeast with a Walker B mutation of the D2 domain; also called Pex1WB^E798Q; Pex1pWB; not shown: His6, N-terminal, kept; GST, C-terminal, cleaved", "T1 sequence (looked up)": "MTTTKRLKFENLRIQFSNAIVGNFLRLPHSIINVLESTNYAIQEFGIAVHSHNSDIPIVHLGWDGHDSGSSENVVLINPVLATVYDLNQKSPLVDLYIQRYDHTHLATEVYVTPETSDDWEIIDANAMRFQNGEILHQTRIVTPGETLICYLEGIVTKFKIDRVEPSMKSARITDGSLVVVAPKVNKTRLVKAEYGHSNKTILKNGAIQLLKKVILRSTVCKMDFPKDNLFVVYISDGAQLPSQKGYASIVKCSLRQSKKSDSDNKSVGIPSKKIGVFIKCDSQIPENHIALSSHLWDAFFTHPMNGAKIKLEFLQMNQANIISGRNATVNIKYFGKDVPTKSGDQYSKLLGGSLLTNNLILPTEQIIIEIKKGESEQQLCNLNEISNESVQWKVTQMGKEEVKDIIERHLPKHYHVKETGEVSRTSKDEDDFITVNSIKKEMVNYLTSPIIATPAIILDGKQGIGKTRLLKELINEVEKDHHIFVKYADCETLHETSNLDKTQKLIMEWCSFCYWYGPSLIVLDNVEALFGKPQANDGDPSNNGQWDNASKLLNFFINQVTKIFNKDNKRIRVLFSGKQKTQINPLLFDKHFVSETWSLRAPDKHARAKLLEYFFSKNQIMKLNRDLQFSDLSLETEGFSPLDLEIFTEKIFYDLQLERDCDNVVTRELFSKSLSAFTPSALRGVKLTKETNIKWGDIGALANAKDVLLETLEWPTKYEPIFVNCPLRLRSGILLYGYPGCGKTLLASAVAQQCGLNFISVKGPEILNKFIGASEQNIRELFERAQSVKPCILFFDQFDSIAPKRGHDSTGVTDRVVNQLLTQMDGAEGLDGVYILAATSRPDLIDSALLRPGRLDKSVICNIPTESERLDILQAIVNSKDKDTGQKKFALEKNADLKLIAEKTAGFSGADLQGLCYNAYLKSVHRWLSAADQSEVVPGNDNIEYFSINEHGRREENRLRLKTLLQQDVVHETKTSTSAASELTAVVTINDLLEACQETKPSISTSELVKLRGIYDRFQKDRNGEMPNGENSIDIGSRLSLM", "assay": "SEC; second gel filtration of the purified heterohexameric complexes after incubation at 37 °C"}, "[2]": {"target": "T2, HisPex1p released from HisPex1pGST by thrombin (S. cerevisiae, UniProt P24004 1-1043)", "T2 construct": "Pex1p, type II AAA-ATPase peroxin of yeast; The GST tag held the complex on GSH-agarose during purification and stayed on the column after thrombin cleavage; source: E. coli Tuner (DE3), co-purified with HisPex6p (NiNTA-agarose, GSH-agarose, thrombin release); not shown: His6, N-terminal, kept; GST, C-terminal, cleaved", "T2 sequence (looked up)": "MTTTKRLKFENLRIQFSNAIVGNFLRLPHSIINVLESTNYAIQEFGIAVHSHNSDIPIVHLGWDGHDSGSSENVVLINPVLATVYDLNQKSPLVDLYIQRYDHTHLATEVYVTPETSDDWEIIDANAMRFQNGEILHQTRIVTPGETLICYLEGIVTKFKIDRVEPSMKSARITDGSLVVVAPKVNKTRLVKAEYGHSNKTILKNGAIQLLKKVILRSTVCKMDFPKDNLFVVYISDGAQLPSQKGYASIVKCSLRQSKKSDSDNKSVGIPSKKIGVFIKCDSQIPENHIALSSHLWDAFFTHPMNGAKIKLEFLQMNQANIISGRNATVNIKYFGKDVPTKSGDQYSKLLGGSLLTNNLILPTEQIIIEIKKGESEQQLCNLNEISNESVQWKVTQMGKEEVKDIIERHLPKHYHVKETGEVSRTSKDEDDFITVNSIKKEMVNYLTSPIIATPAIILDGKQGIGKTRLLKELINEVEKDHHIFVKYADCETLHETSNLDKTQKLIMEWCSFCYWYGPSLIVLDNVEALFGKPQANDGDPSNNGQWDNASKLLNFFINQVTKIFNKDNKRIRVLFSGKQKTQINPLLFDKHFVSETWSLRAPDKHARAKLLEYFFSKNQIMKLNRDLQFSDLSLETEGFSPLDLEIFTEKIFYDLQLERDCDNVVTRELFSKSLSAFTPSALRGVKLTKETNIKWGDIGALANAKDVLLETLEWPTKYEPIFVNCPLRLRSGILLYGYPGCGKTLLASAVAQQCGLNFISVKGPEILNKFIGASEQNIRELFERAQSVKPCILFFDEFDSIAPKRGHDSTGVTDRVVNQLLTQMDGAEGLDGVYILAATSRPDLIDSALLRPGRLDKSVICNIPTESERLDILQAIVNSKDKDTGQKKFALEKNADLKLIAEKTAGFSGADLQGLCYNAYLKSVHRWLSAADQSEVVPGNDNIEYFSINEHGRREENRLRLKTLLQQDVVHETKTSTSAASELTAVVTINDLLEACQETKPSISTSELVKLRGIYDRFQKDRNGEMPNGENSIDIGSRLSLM", "assay": "SEC; Pex1/6p/Pex15p complex isolated on GSH-agarose, released by thrombin (GST left on the column), Superose 6 (small-scale and preparative) in presence of ATP; anti-His immunoblot or Coomassie, signal intensities by ImageJ"}, "[3]": {"target": "T3, Pex15p(1-315)His (GST removed by thrombin) (S. cerevisiae, UniProt Q08215 1-315)", "T3 construct": "Pex15p of S. cerevisiae, cytosolic part, residues 1 to 315; Same construct as m10 after thrombin cleavage; detected by anti-His antibodies; Printed mass 36 kDa; alone it eluted at about 100 kDa; also called Pex15pHis; source: E. coli BL21 (DE3), purified (Glutathione Agarose 4B), released from GSH-agarose by thrombin; not shown: GST, N-terminal, cleaved; His6, C-terminal, kept", "T3 sequence (looked up)": "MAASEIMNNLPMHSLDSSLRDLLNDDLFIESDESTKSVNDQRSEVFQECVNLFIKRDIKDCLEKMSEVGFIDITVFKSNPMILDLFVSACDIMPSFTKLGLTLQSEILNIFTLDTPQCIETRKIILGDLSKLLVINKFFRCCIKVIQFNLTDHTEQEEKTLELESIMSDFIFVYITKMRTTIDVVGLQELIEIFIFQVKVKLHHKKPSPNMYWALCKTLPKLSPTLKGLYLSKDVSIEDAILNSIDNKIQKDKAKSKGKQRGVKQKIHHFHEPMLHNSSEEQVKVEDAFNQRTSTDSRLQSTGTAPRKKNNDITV", "assay": "SEC; Pex1/6p/Pex15p complex isolated on GSH-agarose, released by thrombin (GST left on the column), Superose 6 (small-scale and preparative) in presence of ATP; anti-His immunoblot or Coomassie, signal intensities by ImageJ"}},
  "data": [
    {"binder": "HisPex6p (natural protein, S. cerevisiae, UniProt P33760 1-1030, looked up, Pex6p, type II AAA-ATPase peroxin of yeast; also called single Pex6p; isolated Pex6p; source: E. coli Tuner (DE3), purified (NiNTA-agarose; with HisPex1pGST also GSH-agarose and size exclusion); not shown: His6, N-terminal, kept) MKASLTFSLSGIYAPCSISRDIYLEYGDKKAECLYGTIRLPQYGPGCTPGKIVHCVLDDSLPFCSIVVPSKLFGFMPTQPTMDFCYFEPILDNVVPVLDSVTFLINEQLYSKLMDLPQEMQQIQFLHYKYNINSMETVVHSRDILTSGLCQILNCSPFPQGLVDFTETQLILVNDTEQKLSALKYANEDEEYALPKIGTNSALSIDLESLPCTISRDLLRPAPHINDDNSIYAFTDAETLLRLDVTSGSFITVSNMGCVRLVKLFVLLLPNGFKKRTIYAPPKIIASFPDCSVVTISKSNIGHTDIPIANQVFISRVGGWLQSQKCFQNIILTTLKKFFSESKRILCQNDLIPIAFDSSMADLNIAEENDESDDEDELGQYYKNDSLVWFFVTSAELDCFSKDNSHFIIDPNRTKLITTNITNRRPLPLSRSNLQRYYGFAETFYYDLHIFPYVRQLVNILETSFNCSQRGITLNASVLLHSTTNNVGKATMVRFASKYLGIHLLEIDCLSLTSNSRQLDSTSKIIGYIRAKCENVLPYASPAVIFLAHLDSILLDVNANQDPEAIKLQKSINFEMSKLLDDFTFKFPGTTFVGSVNNIDNVPSSFRSHMRFEILVPVPSEAQRLRIFQWYLSSHELNRDVQQKVPVSYMDNISFSSLSSYSAGLTPLDIKSIVETARMTATARFYQESKKCGWLPQSILITQEDLSKATSKARNEFSVSIGAPQIPNVTWDDIGGIDFVKGEILDTIDMPLKHPELFTSGMKKRSGILFYGPPGTGKTLMAKAIATNFSLNFFSVKGPELLNMYIGESEANVRRVFQKAREAKPCVIFFDEIDSVAPKRGNQGDSGGVMDRIVSQLLAELDGMSTDADGVFVIGATNRPDLLDEALLRPGRFDKLLYLGIPDTDTKQLNILEALTRKFVLDNDVKLIELAKLCPFNYTGADFYALCSDAMLNAMSRIARMVEKKVSQHNELTGENISTRRWFDKIATKEDTKVVVKMEDFLKAQEQLTPSVSRAELNHYEAVRANFEGA", "values": [
      {"measurement": "binding result", "setting": "[1]", "result": "binds"},
      {"measurement": "stoichiometry N", "setting": "[2]", "result": 0.9, "unit": "Pex6p per Pex1p"},
      {"measurement": "stoichiometry N", "setting": "[3]", "result": 1, "unit": "Pex15p per Pex6p"}
    ]}
  ]
}
